Data on two sequences can be found in paper PMC8745191.

Common to all, as to details: LightShift Chemiluminescent EMSA kit, manufacturer's protocol; binding buffer, pH and temperature not stated; protein eluted in 20 mM Tris-HCl pH 8.0, 500 mM …
(A gel shift assay detects complexes by their altered migration in electrophoresis.)

In data set [1] the target is T1, His-STOP1 H266Y H266Y (Arabidopsis thaliana (stop1-1 allele)) (UniProt Q9C8N5).
T1 sequence: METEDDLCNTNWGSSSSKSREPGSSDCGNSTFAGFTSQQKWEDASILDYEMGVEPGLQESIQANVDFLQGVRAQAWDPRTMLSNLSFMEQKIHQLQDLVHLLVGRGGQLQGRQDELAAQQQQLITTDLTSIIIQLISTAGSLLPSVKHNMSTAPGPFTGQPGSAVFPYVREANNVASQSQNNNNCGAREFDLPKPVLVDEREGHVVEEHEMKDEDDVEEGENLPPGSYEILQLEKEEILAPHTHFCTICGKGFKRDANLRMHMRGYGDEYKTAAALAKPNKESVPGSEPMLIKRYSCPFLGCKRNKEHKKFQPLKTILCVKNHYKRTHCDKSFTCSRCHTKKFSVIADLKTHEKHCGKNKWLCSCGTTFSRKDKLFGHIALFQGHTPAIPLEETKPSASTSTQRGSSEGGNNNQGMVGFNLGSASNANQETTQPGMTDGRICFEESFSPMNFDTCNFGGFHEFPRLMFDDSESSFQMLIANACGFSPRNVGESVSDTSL
Briefly: EMSA.

The target in data set [2] is T2, His-STOP1 (Arabidopsis thaliana) (UniProt Q9C8N5).
T2 sequence: T1 sequence with Y266H
As to the kind of experiment: EMSA.

Data set [3] has as its target T2, His-STOP1 (Arabidopsis thaliana). Briefly: competition.

Substitutions are numbered along the chain they refer to.

As for “TTGCATTTAAATTATCAAAGACTAAGATAAGCCTAGAATAATTTAAAATGTAAACTATAGTATACGTCAGAACCTACAGATACAACCTTCCTCGTATAATCCCTAAACAGAATTTTAATT (double strand) [P3 (F2-2) LKS1 promoter probe]”, the results for the binding result in data set [1] and in data set [2] were “no binding” and “binds”, respectively.

For the sequence “TTGCATTTAAATTATCAAAGACTAAGATAAGCCTAGAATAATTTAAAATGTAAACTATAGTATACGTCAGAACCTACAGATACAACCTTCCTCGTATAATCCCTAAACAGAATTTTAATT (double strand) [P3 unlabeled competitor (cold probe)]”, the binding entry in data set [3] is listed as “binds”.
